The target in this experiment is F-actin (skeletal muscle actin) (Oryctolagus cuniculus, UniProt P68135). Kind of experiment: actin co-sedimentation.

In general, Kd refers to the constant that tells how readily two partners part at equilibrium. Low values mean higher affinity, high ones lower affinity.

B1: Rng2 (curly) 1-189 (protein)
chain: MDVNVGLSRLQSQAGAPVGTKGSNTRLAAKQRETLQAYDYLCRVDEAKKWIEECLGTDLGPTSTFEQSLRNGVVLALLVQKFQPDKLIKIFYSNELQFRHSDNINKFLDFIHGIGLPEIFHFELTDIYEGKNLPKVIYCIHALSYFLSMQDLAPPLIKSDENLSFTDEDVSIIVRRLRQSNVILPNFKA
Molecule B1 showed a dissociation constant Kd of 1000 nM.

The values are drawn from article PMC8315802 (2021).
